Assay results reported in patent publication US6812337 (GOVERNING COUNCIL OF THE UNIVERSITY OF TORONTO, dated 2004).

Key:
[1] = molecular target: wild type human presenilin-1 (PS1) (human, UniProt P49768 1-467); assay: cell-based or functional assay
[2] = molecular target: T1, V5-tagged human Presenilin Associated Membrane Protein (PAMP) (human, UniProt Q92542 34-709); assay: immunoprecipitation from cell lysates, Western blot
T1 construct: Expressed by transfection in HEK293 cells or murine embryonic fibroblasts and tested by co-immunoprecipitation from detergent lysates; Glycosylated (~110 kDa, ~80 kDa after Endo H); also called V5-PAMP; V5-tagged-PAMP

Aβ42/Aβ40 Ratio [1] | binding result [2] | Binder
0.59 normalized to mock transfection | – | PAMPΔ312-340 (other, not shown: small tags and cut ends) NSVERKIYIPLNKTAPCVRLLNATHQIGCQSSISGDTGVIHVVEKEEDLQWVLTDGPNPPYMVLLESKHFTRDLMEKLKGRTSRIAGLAVSLTKPSPASGFSPSVQCPNDGFGVYSNSYGPEFAHCREIQWNSLGNGLAYEDFSFPIFLLEDENETKVIKQCYQDHNLSQNGSAPTFPLCAMQLFSHMHAVISTATCMRRSSIQSTFSINPEIVCDPLSDYNVWSMLKPINTTGTLKPDDRVVVAATRLDSRSFFWNVAPGAESAVASFVTQLAAAEASRMVYDMEKGKFPVQLENVDSFVELGQVALRTSLELWMHTDPVSQKNESVRNQVEDLLATLEKSGAGVPAVILRRPNQSQPLPPSSLQRFLRARNISGVVLADHSGAFHNKYYQSIYDTAENINVSYPEWLSPEEDLNFVTDTAKALADVATVLGRALYELAGGTNFSDTVQADPQTVTRLLYGFLIKANNSWFQSILRQDLRSYLGDGPLQHYIAVSSPTNTTYVVQYALANLTGTVVNLTREQCQDPSKVPSENKDLYEYSWVQGPLHSNETDRLPRCVRSTARLARALSPAFELSQWSSTEYSTWTESRWKDIRARIFLIASKELELITLTVGFGILIFSLIVTYCINAKADVLFIAPREPGAVSY
0.09 normalized to mock transfection | – | PAMPΔ312-369 (other, not shown: small tags and cut ends) NSVERKIYIPLNKTAPCVRLLNATHQIGCQSSISGDTGVIHVVEKEEDLQWVLTDGPNPPYMVLLESKHFTRDLMEKLKGRTSRIAGLAVSLTKPSPASGFSPSVQCPNDGFGVYSNSYGPEFAHCREIQWNSLGNGLAYEDFSFPIFLLEDENETKVIKQCYQDHNLSQNGSAPTFPLCAMQLFSHMHAVISTATCMRRSSIQSTFSINPEIVCDPLSDYNVWSMLKPINTTGTLKPDDRVVVAATRLDSRSFFWNVAPGAESAVASFVTQLAAAEALRTSLELWMHTDPVSQKNESVRNQVEDLLATLEKSGAGVPAVILRRPNQSQPLPPSSLQRFLRARNISGVVLADHSGAFHNKYYQSIYDTAENINVSYPEWLSPEEDLNFVTDTAKALADVATVLGRALYELAGGTNFSDTVQADPQTVTRLLYGFLIKANNSWFQSILRQDLRSYLGDGPLQHYIAVSSPTNTTYVVQYALANLTGTVVNLTREQCQDPSKVPSENKDLYEYSWVQGPLHSNETDRLPRCVRSTARLARALSPAFELSQWSSTEYSTWTESRWKDIRARIFLIASKELELITLTVGFGILIFSLIVTYCINAKADVLFIAPREPGAVSY
– | no binding | calnexin (other, UniProt P27824 21-592, looked up, whole, on cells; The only named member of 'other ER-resident proteins'; also called other ER-resident proteins (e.g., calnexin)) HDGHDDDVIDIEDDLDDVIEEVEDSKPDTTAPPSSPKVTYKAPVPTGEVYFADSFDRGTLSGWILSKAKKDDTDDEIAKYDGKWEVEEMKESKLPGDKGLVLMSRAKHHAISAKLNKPFLFDTKPLIVQYEVNFQNGIECGGAYVKLLSKTPELNLDQFHDKTPYTIMFGPDKCGEDYKLHFIFRHKNPKTGIYEEKHAKRPDADLKTYFTDKKTHLYTLILNPDNSFEILVDQSVVNSGNLLNDMTPPVNPSREIEDPEDRKPEDWDERPKIPDPEAVKPDDWDEDAPAKIPDEEATKPEGWLDDEPEYVPDPDAEKPEDWDEDMDGEWEAPQIANPRCESAPGCGVWQRPVIDNPNYKGKWKPPMIDNPSYQGIWKPRKIPNPDFFEDLEPFRMTPFSAIGLELWSMTSDIFFDNFIICADRRIVDDWANDGWGLKKAADGAAEPGVVGQMIEAAEERPWLWVVYILTVALPVFLVILFCCSGKKQTSGMEYKKTDAPQPDVKEEEEEKEEEKDKGDEEEEGEEKLEEKQKSDAEEDGGTVSQEEEDRKPKAEEDEILNRSPRNRKPRRE
